Measured values taken from the Human Domainome abundance scans (Beltran et al. 2025).
± gives the uncertainty stated by the source.

B1: Metastasis-associated protein MTA3, residues 265 to 317; numbered along this chain, Q9BTC8 (parent)
chain: RDEMEEWSASEASLFEEALEKYGKDFNDIRQDFLPWKSLTSIIEYYYMWKTTD

Variants of: B1
Assay: abundance fitness (aPCA) (normalised: wild type 0, dead -1); higher = more abundant; growth selection in yeast, the domain comes from the species named
Settings: Homo sapiens

Variant | abundance fitness
M4C | -0.307 ± 0.15
M4H | 0.156 ± 0.27
M4E | -0.351 ± 0.29
M4I | -0.211 ± 0.3
M4K | -0.647 ± 0.31
T51N | -0.027 ± 0.083
T51S | -0.068 ± 0.1
T51V | -0.624 ± 0.14
T51M | -0.542 ± 0.16
T51W | -0.853 ± 0.17
T51D | 0.134 ± 0.18
Y22G | -0.625 ± 0.15
Y22E | -0.856 ± 0.31
Y22N | -0.712 ± 0.22
Y22T | -0.599 ± 0.15
Y22H | -0.079 ± 0.093
Y22K | -0.72 ± 0.17
Y22M | -0.792 ± 0.11
I43Y | -0.304 ± 0.17
I43A | -0.148 ± 0.089
K37T | -0.88 ± 0.082
K37P | -0.877 ± 0.17
K37G | -0.812 ± 0.09
K37E | -0.806 ± 0.17

Variant | abundance fitness
I42S | -0.713 ± 0.1
I42V | -0.475 ± 0.096
I42W | -0.204 ± 0.13
I42T | -0.605 ± 0.089
I42L | -0.658 ± 0.11
I42D | -0.828 ± 0.14
I42Q | -0.875 ± 0.13
E5V | -0.719 ± 0.26
E5R | -0.341 ± 0.09
E5M | -0.209 ± 0.11
E5T | -0.697 ± 0.34
E5I | -0.196 ± 0.26
E20F | -0.54 ± 0.11
S10H | -0.139 ± 0.13
S10T | -0.091 ± 0.08
S10R | -0.156 ± 0.072
D25F | -0.594 ± 0.28
E3Q | -0.357 ± 0.32
E3L | 0.135 ± 0.08
A12Y | -0.768 ± 0.15
A12H | -0.041 ± 0.11
A12V | 0.076 ± 0.096
A12M | 0.068 ± 0.12
A12G | -0.618 ± 0.098

Variant | abundance fitness
A12S | -0.436 ± 0.1
A12L | -0.473 ± 0.069
A12I | -0.117 ± 0.17
Y47Q | 0.329 ± 0.2
Y47E | 0.516 ± 0.088
Y47H | 0.196 ± 0.11
Y47V | -0.681 ± 0.18
R1F | 0.372 ± 0.15
R1I | 0.025 ± 0.23
R1T | 0.299 ± 0.16
R1M | 0.11 ± 0.23
W36C | -0.733 ± 0.092
W36K | -0.217 ± 0.12
W36V | -0.657 ± 0.076
Y45W | -0.546 ± 0.39
Y45P | -0.726 ± 0.28
N27E | 0.431 ± 0.19
N27Q | -0.075 ± 0.31
N27I | 0.743 ± 0.18
N27M | -0.464 ± 0.13
N27A | -0.015 ± 0.22
N27S | 0.037 ± 0.15
N27Y | -0.305 ± 0.49
S8V | -0.949 ± 0.15

Variant | abundance fitness
S8H | -0.696 ± 0.13
S8P | -0.884 ± 0.14
S8R | -0.93 ± 0.12
T40I | -0.771 ± 0.27
T40Q | 0.195 ± 0.073
T40S | -0.336 ± 0.093
T40L | -0.827 ± 0.094
T52P | -0.055 ± 0.078
T52F | -0.51 ± 0.37
T52I | -0.292 ± 0.22
T52H | -0.405 ± 0.2
T52L | -0.298 ± 0.094
T52N | 0.2 ± 0.095
W49A | -0.088 ± 0.12
W49K | 0.497 ± 0.09
G23K | -1.05 ± 0.35
G23C | -0.368 ± 0.1
G23Y | -0.353 ± 0.36
G23L | -0.745 ± 0.086
S41N | -0.561 ± 0.13
S41H | -0.717 ± 0.21
S41P | 0.242 ± 0.14
S41T | -0.804 ± 0.094
S41Y | -0.488 ± 0.11

Variant | abundance fitness
S41K | -0.781 ± 0.12
S41F | -0.54 ± 0.16
F15R | -0.485 ± 0.1
F15Q | -0.217 ± 0.17
F15D | -0.578 ± 0.25
F15I | -0.836 ± 0.16
K24S | -0.108 ± 0.076
K24A | 0.104 ± 0.075
S13H | -0.242 ± 0.13
S13C | -0.134 ± 0.14
S13V | 0.066 ± 0.09
S13K | 0.502 ± 0.1
A18Q | -0.542 ± 0.13
A18P | -0.912 ± 0.14
A18F | -0.902 ± 0.17
A18D | -1.2 ± 0.39
A18K | -0.554 ± 0.23
D28S | 0.644 ± 0.13
D28M | 0.331 ± 0.2
D28G | 0.079 ± 0.12
D28R | 0.549 ± 0.14
D28E | 0.305 ± 0.11
D28W | 0.035 ± 0.11
D53N | 0.211 ± 0.3

Variant | abundance fitness
W7T | -0.884 ± 0.15
W7D | -0.814 ± 0.28
W7F | -0.681 ± 0.26
K21P | -0.804 ± 0.1
K21G | -0.842 ± 0.17
D2H | -0.296 ± 0.072
D2N | 0.058 ± 0.23
D2W | -0.323 ± 0.28
Y46W | -0.62 ± 0.22
Y46C | -0.976 ± 0.28
M48K | 0.128 ± 0.26
L39M | -0.541 ± 0.46
E11Y | -0.788 ± 0.19
E11W | -0.78 ± 0.1
L14F | -0.842 ± 0.11
L14D | -0.723 ± 0.099
E17G | -0.772 ± 0.098
E17L | -0.175 ± 0.092
E17N | -0.668 ± 0.12
E17F | -0.515 ± 0.15
F33L | -0.169 ± 0.46
E6R | -0.226 ± 0.13
E6M | 0.08 ± 0.33
E6K | 0.096 ± 0.28

Variant | abundance fitness
S38C | -0.995 ± 0.47
S38I | -0.629 ± 0.2
S38F | -0.844 ± 0.24
E44K | -0.246 ± 0.13
E44T | -0.443 ± 0.081
E44Q | 0.015 ± 0.13
E44M | -0.961 ± 0.38
E44P | -0.922 ± 0.098
E44I | -0.779 ± 0.15
E44L | -0.694 ± 0.092
E44R | 0.079 ± 0.094
A9R | -0.356 ± 0.072
A9S | -0.331 ± 0.078
A9E | -0.042 ± 0.12
L19M | -0.255 ± 0.16
L19T | -0.581 ± 0.086
L19G | 0.002 ± 0.18
L19V | 0.113 ± 0.068
L19H | -0.525 ± 0.11
L19D | -0.92 ± 0.36
E16L | -0.557 ± 0.095
E16N | -0.632 ± 0.29
E16W | -0.504 ± 0.14
